In general, Kd refers to the free concentration of one partner at which half of the binding sites on the other are occupied at equilibrium, for simple one-to-one binding. Lower therefore signals a tighter complex.

The assay has as its target T1, mono-SUMO2 (UniProt P61956 12-93).
T1 construct: SUMO2-ΔN11 monomer (first 11 residues missing) ending with the C-terminal GG motif and a stop codon; The methods describe the monomers from the pGEX-4T2 plasmids as ΔN11; also called SUMO2-ΔN11 monomer; source: E. coli Rosetta 2(DE3)pLysS, purified (glutathione beads, thrombin cleavage, anion exchange, SEC)
The experiment in a line: ITC; VP-ITC or ITC200; 25°C; ITC buffer (50 mM Tris/HCl, pH 7.5, 150 mM NaCl, 2 mM DTT, 5% glycerol); SUMOs titrated into a solution of the RNF4 construct or peptide (legends of Figures 1B, 2B); 20–30 injections up to 2–3-fold molar excess; values averaged from two to six titrations. As to conditions: both partners purified. In general terms: Isothermal titration calorimetry measures the heat released or taken up as one component is titrated into another.

T1 sequence (P61956 12-93): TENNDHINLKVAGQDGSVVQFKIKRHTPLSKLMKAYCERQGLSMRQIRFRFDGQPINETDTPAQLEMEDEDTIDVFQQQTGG

B1: single PIAS1 peptide (peptide)
chain: KVEVIDLTIDSSSDEEEEEP
modifications: exact peptide ends are only in Figure 2A; limits set around the VIDLT core plus C-terminal acidic flank; termini unknown
B1 registered a Kd of 16 µM.

The values are drawn from PMC3901395, “Multivalent interactions of the SUMO-interaction motifs in RING finger protein 4 determine the specificity for chains of the SUMO” (Biochemical Journal, 2013).
